Measurements as given in patent US6426335, “Vascular endothelial growth factor (VEGF) nucleic acid ligand complexes” (Gilead Sciences, Inc.).

What was measured:
VEGF165 [1] = target: T1, VEGF165 (Homo sapiens, UniProt P15692-4 P15692-4:27-191); assay: filter; 37C; settings: tags: R&D Systems carrier-free, expressed in Sf21 insect cells; chain copies: homodimer (inferred)
Method: (§1) Nucleic Acid Ligands radiolabeled during transcription by incorporation of α-[^32P]-labeled NTPs, or after synthesis using γ-[^32P]-ATP and T4 polynucleotide kinase, were incubated in low concentration (between 20 and 71 pM) with varying concentrations of VEGF or other growth factors at 37° C. for 15 minutes. Incubations were in TBS, PBS, or HEPES-buffered saline (HBS), pH 7.4, with or without the addition of supplemental divalent cations. Samples were passed through prewashed 0.45μ Type HA filters (Millipore) followed by a 5–10 ml wash with binding buffer. Filters were immersed in scintillant and counted to quantitate the amount of protein-bound RNA retained by each filter. The equilibrium dissociation constant (K_D) of Nucleic Acid Ligand binding to a specific protein was calculated from the data points as described in Green et al. (1996) Biochem. 35:14413–14424.

VEGF165 [2] = target: T1, VEGF165; assay: filter; 37C; Ca2+ dependent; settings: tags: R&D Systems carrier-free, expressed in Sf21 insect cells; chain copies: homodimer (inferred)
Method: as §1

VEGF165 [3] = target: T1, VEGF165; assay: EMSA; competition EMSA; apparent affinity; VEGF isoform not stated; settings: tags: R&D Systems carrier-free, expressed in Sf21 insect cells; chain copies: homodimer (inferred)
Method: The binding affinities of the unmodified Nucleic Acid Ligand (NX213, open circle), its dialkyl glycerol modified analog (NX278, open diamond) and liposomal NX278 (NX278-L, open square), along with the sequence scrambled (sc) controls (scNX213, closed circle; scNX278, closed diamond; and scNX278-L, closed square) were determined by a competition electrophoreticmobility shift assay. NX213 is 5'-TsTsTsTs mAaCaC aCaUrG rAaUmG rGaUmA mGrAaC mGaCaC mGmGmG mGaUmG TsTsTsTsT-3' and scNX213 is (SEQ ID NO:1) 5'-TsTsTsTs mGaUaC mGmGaU mAaCrG mGrAmG aUmGrG rAaCnC mGaUaC mAaCmG TsTsTsTsT-3' (SEQ ID NO:4) ^32P 5=end-labeled NX-213 (1.5 nM) was incubated in binding buffer (phosphate buffered saline with 0.01% human serum albumin) at 37° C. for 20 min in the presence of VEGF (0.33 nM) and competitor oligonucleotide(5 pM-0.33 µM). The ^32p NX-213/VEGF complex was resolved from the free ^32p NX-213 by electrophoresison 8% polyacrylamide gel (19:1 acrylamide:bisacrylamide, Tris-borate, 89 mM, 1 mM EDTA as the running buffer). The intensity of the band corresponding to ^32P NX-213/VEGF complex at varying competitor concentrations was quantitated by phosphorimager analysis. Data normalized for the amount of complex formed in the absence of competitor were fitted by the least squares method to the competition binding equation. […]

VEGF165 [4] = target: T1, VEGF165; assay: described previously, quoted for comparison; settings: tags: R&D Systems carrier-free, expressed in Sf21 insect cells; chain copies: homodimer (inferred); label: 32P 5' end

T1 sequence (P15692 other isoform, or with tags, fused parts or gaps): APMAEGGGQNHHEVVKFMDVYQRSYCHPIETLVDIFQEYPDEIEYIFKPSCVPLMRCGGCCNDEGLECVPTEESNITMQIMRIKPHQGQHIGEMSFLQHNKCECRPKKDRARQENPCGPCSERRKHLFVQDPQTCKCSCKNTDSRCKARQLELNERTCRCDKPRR

| Binder | Kd (VEGF165 [1]) | also measured |
| --- | --- | --- |
| GAAUCAGUGAAUGCUUAUACAUCT (ssRNA, 2'-F pyrimidines; 3'-3' dT cap (N24) [24 (3'-3' dT cap); all C/U 2'-F]) [t44c] | 2 nM |  |
| GCGGAAUCAGUGAAUGCUUAUACAUCCGCT (ssRNA, 2'-F pyrimidines; 3'-3' dT cap (N30) [30 (3'-3' dT cap); all C/U 2'-F]) [t44] |  | Kd (VEGF165 [2]): 0.01 nM |
| AACCGAUGGAAUUUUUGGACGCUT (ssRNA, 2'-F pyrimidines; 3'-3' dT cap (N24) [24 (3'-3' dT cap); all C/U 2'-F]) [t2d] | 20 nM |  |
| TTTTACCCUGAUGGUAGACGCCGGGGUGTTTTT (mixed, as NX278, embedded in DSPC:cholesterol liposome) [NX278-Liposome] |  | binding signal (VEGF165 [3]): 3 fold lower than NX278 |
| TTTTACCCUGAUGGUAGACGCCGGGGUGTTTTT (mixed, PS DNA T at 1-4 and 29-33; 2'-OMe at 5,13,16,17,20,23-26,28; 2'-NH2 at 6-9,12,15,19,21,22,27) [NX213] |  | Kd (VEGF165 [4]): 0.14 nM |
| GAACCGAUGGAAUUUUUGGACGCUCT (ssRNA, 2'-F pyrimidines; 3'-3' dT cap (N26) [26 (3'-3' dT cap); all C/U 2'-F]) [t2c] | 0.2 nM |  |
